Assay [1] deals with T1, mouse serum albumin (MSA) (mouse, UniProt P07724 25-608).
T1 construct: Used coated, on a CM5 chip, in solution and biotinylated (about 2 biotins per molecule); also called biotinylated MSA
Kind of assay: inhibition biacore: dAb premixed with MSA, binding to MSA-coated CM5 chip, Klotz plot (estimated Kd). How it is done: Briefly, the dAbs were tested to determine the concentration of dAb required to achieve 200 RUs of response on a biacore CM5 chip coated with a high density of MSA. Once the required concentrations of dAb had been determined, MSA antigen at a range of concentrations around the expected Kd was premixed with the dAb and incubated overnight. Binding to the MSA coated biacore chip of dAb in each of the premixes was then measured at a high flow-rate of 30 μl/minute.
The purified dAbs were then analysed by inhibition biacore to determine Kd. […] Once the required concentrations of dAb had been determined, MSA antigen at a range of concentrations around the expected Kd was premixed with the dAb and incubated overnight. Binding to the MSA coated biacore chip of dAb in each of the premixes was then measured at a high flow-rate of 30 μl/minute.

Assay [2] deals with T2, human TNFα (human, UniProt P01375 77-233).
T2 construct: Coated on plates, coupled to a CM5 chip, or added in solution (10 ng/ml) in the TNF receptor assay; the assay paragraphs often print only 'TNF'; also called TNF alpha; TAR1
T2 sequence (P01375 77-233 limits assumed): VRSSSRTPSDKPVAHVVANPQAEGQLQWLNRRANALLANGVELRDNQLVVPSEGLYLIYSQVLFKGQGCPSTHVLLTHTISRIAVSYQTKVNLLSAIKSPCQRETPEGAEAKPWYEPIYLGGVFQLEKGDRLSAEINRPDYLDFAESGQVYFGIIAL
The assay is described as follows: TNF receptor assay; fermenter-expressed, cation exchange FPLC pure dimer.

The target of assay [3] is T2, human TNFα. The assay is described as follows: TNF receptor assay: inhibition of TNF binding to TNFR1-Fc (ELISA). (In general: ELISA stands for enzyme-linked immunosorbent assay.)
Assay [4] deals with T2, human TNFα. Described as above. The source holds these as a separate data set.
The target in assay [5] is T3, hen egg lysozyme (HEL) (hen, UniProt P00698 19-147).
T3 construct: also called hen egg white lysozyme
T3 sequence (P00698 19-147): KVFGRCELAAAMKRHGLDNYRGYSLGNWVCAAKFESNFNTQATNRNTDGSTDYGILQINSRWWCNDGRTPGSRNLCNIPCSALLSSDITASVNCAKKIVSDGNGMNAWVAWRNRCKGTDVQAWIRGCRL
The assay is described as follows: ELISA on HEL coated at 3 mg/ml, detection with 9e10 (anti-myc) and anti mouse IgG-HRP.

For a further assay, the target named is T4, human p55 TNF receptor (human, UniProt P19438 30-211, limits assumed).
T4 construct: Coupled to a CM5 chip or coated on immunotubes/plates; also called TNF receptor 1; TNFα receptor
T4 sequence (looked up): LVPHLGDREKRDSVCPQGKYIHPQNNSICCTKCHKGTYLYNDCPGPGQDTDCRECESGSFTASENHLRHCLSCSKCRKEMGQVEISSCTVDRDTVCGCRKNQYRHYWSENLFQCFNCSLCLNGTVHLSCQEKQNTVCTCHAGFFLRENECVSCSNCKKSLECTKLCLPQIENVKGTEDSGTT
The assay is described as follows: selection from dAb libraries.

For assay [6], the target named is bovine serum albumin (BSA) (bovine, UniProt P02769 25-607). The assay is described as follows: antigen ELISA. How it is done: (§1) Binding activity of dimeric recombinant proteins was compared to monomer by Protein A/L ELISA or by antigen ELISA. Briefly, a 96 well plate is coated with antigen or Protein A/L overnight at 4° C. The plate washed with 0.05% Tween-PBS, blocked for 2 hrs with 2% Tween-PBS. The sample is added to the plate incubated for 1 hr at room temperature. The plate is washed and incubated with the secondary reagent for 1 hr at room temperature. The plate is washed and developed with TMB substrate. Protein A/L-HRP or India-HRP was used as a secondary reagent.
bovine serum albumin (BSA), sequence (P02769 25-607 limits assumed): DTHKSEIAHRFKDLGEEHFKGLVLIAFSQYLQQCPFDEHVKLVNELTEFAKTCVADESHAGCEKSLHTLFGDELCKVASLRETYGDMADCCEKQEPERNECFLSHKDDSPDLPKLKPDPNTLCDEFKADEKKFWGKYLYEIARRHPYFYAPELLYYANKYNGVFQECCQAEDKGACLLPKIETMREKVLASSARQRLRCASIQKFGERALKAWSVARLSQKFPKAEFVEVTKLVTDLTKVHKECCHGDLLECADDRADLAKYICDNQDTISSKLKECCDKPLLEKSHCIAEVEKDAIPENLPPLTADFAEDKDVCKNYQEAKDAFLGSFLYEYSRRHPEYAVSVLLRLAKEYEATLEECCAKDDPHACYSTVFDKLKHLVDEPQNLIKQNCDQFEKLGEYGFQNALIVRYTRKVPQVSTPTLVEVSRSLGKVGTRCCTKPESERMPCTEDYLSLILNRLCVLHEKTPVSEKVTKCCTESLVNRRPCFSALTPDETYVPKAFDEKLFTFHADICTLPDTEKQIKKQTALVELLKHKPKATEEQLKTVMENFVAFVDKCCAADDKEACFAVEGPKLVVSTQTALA

Assay [7] has as its target T3, hen egg lysozyme (HEL). The assay is described as follows: selection from dAb libraries.
Assay [8] concerns the target T2, human TNFα. Kind of assay: TNF receptor assay: inhibition of TNF binding to TNFR1-Fc (ELISA). The source holds these as a separate data set.
Assay [9] addresses T2, human TNFα. The assay is described as follows: not stated; printed under 'Equilibrium dissocation constant (Kd = Koff/Kon)' in the data summary.
Assay [10] deals with T2, human TNFα. Kind of assay: antigen ELISA. How it is done:
as §1

What is called Kd is a measure of binding affinity in units of concentration. Broadly, the IC50 is the point on the concentration scale where inhibition reaches its midpoint.

Changes are numbered by the printed parent chain.

T1 sequence (P07724 25-608 limits assumed): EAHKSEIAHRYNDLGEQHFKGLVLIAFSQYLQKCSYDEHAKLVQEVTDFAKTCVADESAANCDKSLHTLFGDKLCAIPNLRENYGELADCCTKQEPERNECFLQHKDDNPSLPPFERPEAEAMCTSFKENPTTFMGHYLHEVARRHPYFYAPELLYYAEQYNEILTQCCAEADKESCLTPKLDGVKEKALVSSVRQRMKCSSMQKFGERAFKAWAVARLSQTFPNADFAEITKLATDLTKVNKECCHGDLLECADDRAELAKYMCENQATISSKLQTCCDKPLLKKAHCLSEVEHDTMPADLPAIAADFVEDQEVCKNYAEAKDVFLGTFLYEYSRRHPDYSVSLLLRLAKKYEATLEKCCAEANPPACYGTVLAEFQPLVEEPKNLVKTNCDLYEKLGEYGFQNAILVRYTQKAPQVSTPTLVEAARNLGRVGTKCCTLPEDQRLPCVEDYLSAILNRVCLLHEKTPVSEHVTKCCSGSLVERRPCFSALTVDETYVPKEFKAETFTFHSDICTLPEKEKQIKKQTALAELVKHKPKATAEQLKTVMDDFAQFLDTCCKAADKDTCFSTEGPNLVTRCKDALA

B1: MSA16 (other)
VL: DIQMTQSPSSLSASVGDRVTITCRASQSIIKHLKWYQQKPGKAPKLLIYGASRLQSGVPSRFSGSGSGTDFTLTISSLQPEDFATYYCQQGARWPQTFGQGTKVEIK
notes: also called clone 16; clone 21
With B1, the dissociation constant Kd in assay [1] was 200 nM.

B2: MSA26 (other)
VL: B1 VL with I30Y, K31Y, G50K, R53T, G91V, A92R, R93K, W94V, Q96R
notes: also called clone 26; clone 25
In the case of B2, the Kd in assay [1] was 70 nM.

B3: TAR1-5-19d4 (other)
chain: DIQMTQSPSSLSASVGDRVTITCRASQSIDSYLHWYQQKPGKAPKLLIYSASELQSGVPSRFSGSGSGTDFTLTISSLQPEDFATYYCQQVVWRPFTFGQGTKVEIKRGGGGSGGGGSGGGGSGGGGSGGGGSDIQMTQSPSSLSASVGDRVTITCRASQSVKEFLWWYQQKPGKAPKLLIYMASNLQSGVPSRFSGSGSGTDFTLTISSLQPEDFATYYCQQKFKLPRTFGQGTKVEIKR
notes: also called TAR1-5-19 dimer 4
Regarding B3, the IC50 with human TNFα [2] is 8 nM; in the assay with human TNFα [3], 2 to 5 nM.

B4: TAR1-5-19CYS trimer (TMEA) (other)
VL: DIQMTQSPSSLSASVGDRVTITCRASQSIDSYLHWYQQKPGKAPKLLIYSASELQSGVPSRFSGSGSGTDFTLTISSLQPEDFATYYCQQVVWRPFTFGQGTKVEIKRC
modifications: C-terminal Cys coupled to TMEA (Tris[2-maleimidoethyl]amine)
notes: also called TAR1-5-19 homotrimer; trimeric TAR1-5-19CYS
As to B4, in the assay with human TNFα [4], the IC50 was found to be 0.3 nM.

B5: TAR2h-5 (other)
VH: EVQLLESGGGLVQPGGSLRLSCAASGFTFDLYNMFWVRQAPGKGLEWVSFISQTGRLTWYADSVKGRFTISRDNSKNTLYLQMNSLRAEDTAVYYCAKTLEDFDYWGQGTLVTVSS
notes: VH dAb against TNF receptor 1; also called TAR2-5; TAR2h-5 VH dAb
With B5, in the assay with hen egg lysozyme (HEL) [5], the ELISA signal (background) worked out at 0.069. Moreover, in the assay with human p55 TNF receptor, the binding result was “binds”.

B6: dAb3 monomer (other)
VL: DIQMTQSPSSLSASVGDRVTITCRASQSVKEFLWWYQQKPGKAPKLLIYMASNLQSGVPSRFSGSGSGTDFTLTISSLQPEDFATYYCQQKFKLPRTFGQGTKVEIKR
notes: Vκ dAb monomer; also called partner dAb in TAR1-5d4
Consider B6, for which the binding result in assay [6] is “no binding”.

B7: HEL4 (other)
VH: EVQLLESGGGLVQPGGSLRLSCAASGFRISDEDMGWVRQAPGKGLEWVSSIYGPSGSTYYADSVKGRFTISRDNSKNTLYLQMNSLRAEDTAVYYCASALEPLSEPLGFWGQGTLVTVSS
notes: VH dAb; also called HEL4 VH dAb; anti-hen egg white lysozyme dAb
B7: in the assay with hen egg lysozyme (HEL) [7], the binding result was “binds”.

B8: TAR1-5-19 monomer (other)
VL: DIQMTQSPSSLSASVGDRVTITCRASQSIDSYLHWYQQKPGKAPKLLIYSASELQSGVPSRFSGSGSGTDFTLTISSLQPEDFATYYCQQVVWRPFTFGQGTKVEIKR
notes: also called TAR1-5-19 dAb
Turning to B8, the IC50 with human TNFα [8] turned out to be 30 nM. Besides, the affinity in the assay with human TNFα [9], expressed as Kd, was 30 nM.

B9: dAb1 monomer (other)
VL: B8 VL with D30Y, S31D, Y32A, H34E, S50T, E53R, V92M, W93Q, F96V
notes: Vκ dAb monomer; also called partner dAb in TAR1-5d1, d5, d6
For B9, the binding result with human TNFα [10] is recorded as “binds”; in [6] it was “no binding”.
